Test results: the nanobody polyreactivity screen of Harvey et al. (2022)

Assay: yeast display, Sf9 membrane polyspecificity reagent, FACS + sequencing; frameworks hold sequencing errors
How it was run: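 Nanobodies from a synthetic yeast display library (Saccharomyces cerevisiae BJ5465), induced 36–48 hours with galactose, were stained 1 hour at 4 °C with 10% biotinylated, detergent-solubilized Sf9 membrane reagent, enriched on streptavidin microbeads, then FACS-sorted. Anti-HA (expression) and streptavidin (reagent binding) fluorescence set low and high (top ~1%) gates. Polyreactivity labels come from the gate of origin. Genes were colony-PCR amplified, MiSeq 2 × 250 sequenced and filtered by CDR length.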

Sequence | polyreactivity (PSR sort gate)
QDQLVESGGGLVQAGGSLRLSCAASGFIFFYYAMGRYRQAPGKERELVAAISSSGGSTYYADSVKGRFTISRDNAKNTVYLQMNSLKPEDTAVYYCAAQYNVPRDKYYYWGQGTQVTVSS | high polyreactivity
QDQLVESGGGLVQAGGSLRLSCAASGFIFGGYAMGWYRQAPGKERELVAAISSSGGSTYYADSVKGRFTISRDNAKNTVYLQMNSLKPEDTAVYYCAKVGWSRRYYYWGQGTQVTVSS | high polyreactivity
QDQLVESGGGLVQAGGSLRLSCAASGFIFGYYAMGWYRQAPGKERDLFAAINKNGGSTYYADSVKGRFTISRDNAKNTFYLQRNSLIPEDTAVYYCASRARGYAWTYDYWGQGTQVTVSS | high polyreactivity
QDQLVESGGGLVQAGGSLRLSCAASGFIFIPNAMGWYRQAPRKERELVAAISFSDGTTYYADSVKGRFTISRDYEKNTVYLQMNSLKPEDTAVYYCAAEGYQSQYDYWGQGTQVTVSS | high polyreactivity
QDQLVESGGGLVQAGGSLRLSCAASGFIFYSNAMGWYRQEPGKERELVAAITSGGGSTYYADSVKGRFTISRDTAKNTVYLQMNSLKPEDTAVDYCAVSIGRYPYRYGYWGQGTQVTVSS | high polyreactivity
QDQLVESGGGLVQAGGSLRLSCAASGFIFYYYAMGWYRPAPGKERELVAAISGSGGSTYYADSVKGRFTISRDNAKNTVYLQMNSLKPEDTAVYYCNARRPGYYVYYFAYDYWGQGTQVTVSS | high polyreactivity
QDQLVESGGGLVQAGGSLRLSCAASGFNFYKYAMGWYRQAPGKERELVAAITGRGGSTYYADSVKGRFTISRDNAKNTVYLRMNSLNPEDTAVYYCAASQRSGHPSYDYWGQGTQVTVSS | high polyreactivity
QDQLVESGGGLVQAGGSLRLSCAASGFTFACYTMGWYRQAPGKERELVAGIDWSGGSTYYADSVKGRFTISRDNEKNTVYLEMNSLKPEDTAVYYCNAAVLYYVYPGYDYWGQGTQVTVSS | high polyreactivity
QDQLVESGGGLVQAGGSLRLSCAASGFTFGENSMGWYRQAPGKERELVAANRYSGGSTYYADSVKGRFTISRDNAKNTVYLQMNSLKPEDTAVYYCNADTYALGPAVIPGDEYWGQGTQVTVSS | low polyreactivity
QDQLVESGGGLVQAGGSLRLSCAASGFTFTRNAMGWYRQAPGKEREFVAAISVGGGRTYYADSVKGRFTISRDNAKNTVYLQMNSLKPEDTAVYYCNAYQGWRYDYWGPGTQVTVSS | high polyreactivity
QDQLVESGGGLVQAGGSLRLSCAASGFTFYRYAMGWYRQAPGKERELVATIRNGGNTNYADSVKGRFTISRDNAKNTVYVQMNSLKPEDTAVYYCAKTVLAGMDWGQGTQVTVSS | high polyreactivity
QDQLVESGGGLVQAGGSLRLSCAASGFTIGYNVMGWYRQAPGKERELVATISWNGARTYYADSVKGRFTISRDNAKNTVYLQMNSLKPEETAVYYCAARRYYRGEYDYWGQGTQVTVSS | low polyreactivity
QDQLVESGGGLVQAGGSLRLSCAASGFTLATYAMGWYSPAPGKEREWVAAITRSGGSTDDADSVKGRFTISRDIAKNTVYVQMNSLKPEDTAVYYCNAREVRYEYNYWGHGTQVTVSS | low polyreactivity
QDQLVESGGGLVQAGGSLRLSCAASGGTFIYNTMGWYRQAPGKERELVAAINSGGSTTYADSVKGRFTISRDNAKNTVYLQMNSLKPEDTAVYYCAAVYVYLGVYARYPIWGYYYWGQGTQVTVSS | low polyreactivity
QDQLVESGGGLVQAGGSLRLSCAASGIIFQYYAMGWYRQAPGKERELVAAISWSGGSTYYADSVKGRFTISRDNAKNTVYLQMNSLKPEDTAVYYCAARSRSYWPYEGDYWGQGTQVTVSS | low polyreactivity
QDQLVESGGGLVQAGGSLRLSCAASGIILDHYSMGWYRQAPGKERELVAAISSGTRTNYADSVKGRFTISRDNAKHTVSLQMNSLKPEDTAVYYCAATIYRRYRSKYSITSYWGQGTQVTVSS | high polyreactivity
QDQLVESGGGLVQAGGSLRLSCAASGITFVYYAMGWYRQAPGKERELVAAITGSGDSTYYADSVKGRFTISRDNAKNTVYLQMNSLKPEDTAVYYCAAEAWWYGGFGYWGQGTQVTVSS | high polyreactivity
QDQLVESGGGLVQAGGSLRLSCAASGITFWYYAMGWYRQAPGKERELVAAITRSGRTNYADSVKGRFTISRDYAKNTVYLQMNILKPEDTAVYYCAVDLYSFSPRYYYWGQGTQVTVSS | low polyreactivity
QDQLVESGGGLVQAGGSLRLSCAASGLIFSYYAMGWYRQAPGKERELVAAIDWISGSKYYADSVKGLFTISRDNAKNTVYLQMNSLKPEDTAVYYCAAYGSFWYARFGYCGQGTQVTVSS | low polyreactivity
QDQLVESGGGLVQAGGSLRLSCAASGLIFYEYAMGWYRQAPGKERELVAAISRGGRTYYADSVKGRFTISRDNAKNTVYLQMNSLKPEDTAVYYCADRHWPEKYDYWGQGTHVTVSS | high polyreactivity
QDQLVESGGGLVQAGGSLRLSCAASGLTFDKYVMGWYRQAPGKERELVAAITKGGGSTYYADSVKGRFTISRDNAKNTVYLQMNSLKPEDTAVYYCAVTRPLRYWGQGTQVTVSS | high polyreactivity

Sequence | polyreactivity (PSR sort gate)
QDQLVESGGGLVQAGGSLRLSCAASGLTFDRYTMGWYRQAPGKERELVAAITRGGGNTYYADSVKGRFTISRDNAKNTVYLQMNSLKPEDTAVYYCAANRRDGYDYWGQGTQVTVSS | low polyreactivity
QDQLVESGGGLVQAGGSLRLSCAASGLTFRKNAMGWSRQAPGKERELVAAISTGGRTYYADSVKGRFTISRDNAKNTVYLQMNSLKPEDTAVYYCNTVYVKSGLDYWGQGTQVTVSS | high polyreactivity
QDQLVESGGGLVQAGGSLRLSCAASGNIIVEKAMGWYRQAPGTERELVAVSTSGTSTYADSVKGRFTISRDNAKNTVYLQMYSLKPEDTAVYYCNKRQVFVSTGEYEFDYWGQGTQVTVSS | low polyreactivity
QDQLVESGGGLVQAGGSLRLSCAASGNIYPYAMGWYRQAPGKEREFVAAIRYSGGITYYADSVKGRFTISRDNAKNTVYLQMNSLKPEDTAVYYCAAYGWGNRWYSRFDYWGQGTQVTVSS | high polyreactivity
QDQLVESGGGLVQAGGSLRLSCAASGRIFDTYAMGWYRQAPGKERELDAAITRRGGSTYYADSVKGRFTISRDIAKNTVYLQMNSLKPEDTAVYYCAKSLVNRHYDYWGQGTQVTVSS | low polyreactivity
QDQLVESGGGLVQAGGSLRLSCAASGRIFGLYAMGCYRPAPGKERELVAAYADSVKGRFTISRDNAKNTVYLQMNSLKPEDTAVYYCAKGPLYAGYSIHLRDFNYWGQGTQVTVSS | low polyreactivity
QDQLVESGGGLVQAGGSLRLSCAASGRIFGTYAMGWYRQAPGKERELVATISYSSGRTYYADSVKGRFTISRDNAKNTVYLQMNSLKPEDTAVYYCAAVGTGSSLRYDYWGQGTQVTVSS | high polyreactivity
QDQLVESGGGLVQAGGSLRLSCAASGRIFSVNAMGWYRQAPGKERELVAAISRRGTSTFYADSVKGRFTISRDNAKNTVYLQMNSLKPEDTAVYYCAADFYPYQYKFDYWGQGTQVTVSS | high polyreactivity
QDQLVESGGGLVQAGGSLRLSCAASGRLIPSYVMGGYRPAQGKETEFVAGIRRGGGSTYYADSVKGRFTISRDNAKNTVYLQMNSLKPEDTAVYYSAAVKYSRPGVYHGHDSWRQGTQVTVSS | high polyreactivity
QDQLVESGGGLVQAGGSLRLSCAASGRTFAYKVMGWYRQAPGNERELVAANSRGGGRTYYADSVKGRFTISRDNAKNTVYLQMNSLKPEDTAVYYCNAASSGLSGRLTSIINDYWGQGTQVTVSS | high polyreactivity
QDQLVESGGGLVQAGGSLRLSCAASGRTFDNYAMGWYRQAPGKERELVARITDTGGSTYYADSVKGRFTISRDNAKNTVYLQMNSLKPEDTAVYYCAADSYPFAWYWLYYYWGQGTQVTVSS | low polyreactivity
QDQLVESGGGLVQAGGSLRLSCAASGRTFGTYAMGWYRQAPGKERELVAAISSSGGRTYYADSVKGRFTISRDNAKNTVYVLMHSLKPEVTAVYYFAKSRYATQTDYNYWGQGTQVTVSS | high polyreactivity
QDQLVESGGGLVQAGGSLRLSCAASGRTFKINAMGWYRHAPGTERELVAAITYSGCTTYYADSVKGRFTISRDNAKNTVYLQMNSLKPEDTAVYYCATPSRKSGVGYPSYNYWGQGTQVTVSS | high polyreactivity
QDQLVESGGGLVQAGGSLRLSCAASGRTFLRNAMGWYRQAPGKERELVAAISRSGGSTYYADSVKGRVTISRDNAKNTVYLQMNSLKPEDTAVYYCAADDYGGYYYWGQGTQVTVSS | high polyreactivity
QDQLVESGGGLVQAGGSLRLSCAASGRTFNYNTMGWYIQAPGKERELVAAINKGGTRTYYADSVKGRFTISRDNAKNTVYLEMNSLKPEDTAVYYCAARLYSYDYWGQGTQVTVSS | high polyreactivity
QDQLVESGGGLVQAGGSLRLSCAASGRTFNYYGMGWYRQAPGKERELVAAISRGGTTNYADSVKGRFTISRDNAKNTVYLQMNSLKPEDTAVYYCAKGRSHWHSYQYVRPNYDYLGQGTQVTVSS | high polyreactivity
QDQLVESGGGLVQAGGSLRLSCAASGRTFPRNGMGWYRQAPGKERELVAAISWSGGRTYYADSVKGRFTISRDNAKNTVYLQMNSLKPEDTAVYYCNALYFRKGGYWGQGTQVTVSS | high polyreactivity
QDQLVESGGGLVQAGGSLRLSCAASGRTFTFNTMGWYRQAPGKERELVAAIVGDGTTNYADSVKGRFTISRDNAKNTVYLQMYSLKPEDTAVYYCAADFLYSFWYEPTFDYWGQGTQVTVSS | low polyreactivity
QDQLVESGGGLVQAGGSLRLSCAASGRTFTVYAMGWYRPAPGKEREMVAAISRSGGRTYYADSVKGRFTISRDNAMNTVYLQRNSLKPEDTAVYYCAADVPYRTNDFDYWGQGTQVTVSS | high polyreactivity
QDQLVESGGGLVQAGGSLRLSCAASGRTFVGYAMGWYRQAPGKERELVAAITSGGRTNYADSVKGRCTISRDNAKNTVYLQMTSLKPEDTAVYYCNARTRHRGQIALDYWGQGTQVTVSS | high polyreactivity
